Results on 4 molecules are retold here after patent US20220411531A1 (SUMGEN MAB BEIJING BIOTECH, published 2022).

For assay [1], the target named is T1, AXL on the surfaces of human tumour cells (A549, MDA-MB-231, 786-O) (human, UniProt P30530 27-894).
T1 construct: Endogenous AXL on human tumour cell lines; The tie to the cell-line protein rests on this general definition only; also called cell surface antigen
T1 sequence: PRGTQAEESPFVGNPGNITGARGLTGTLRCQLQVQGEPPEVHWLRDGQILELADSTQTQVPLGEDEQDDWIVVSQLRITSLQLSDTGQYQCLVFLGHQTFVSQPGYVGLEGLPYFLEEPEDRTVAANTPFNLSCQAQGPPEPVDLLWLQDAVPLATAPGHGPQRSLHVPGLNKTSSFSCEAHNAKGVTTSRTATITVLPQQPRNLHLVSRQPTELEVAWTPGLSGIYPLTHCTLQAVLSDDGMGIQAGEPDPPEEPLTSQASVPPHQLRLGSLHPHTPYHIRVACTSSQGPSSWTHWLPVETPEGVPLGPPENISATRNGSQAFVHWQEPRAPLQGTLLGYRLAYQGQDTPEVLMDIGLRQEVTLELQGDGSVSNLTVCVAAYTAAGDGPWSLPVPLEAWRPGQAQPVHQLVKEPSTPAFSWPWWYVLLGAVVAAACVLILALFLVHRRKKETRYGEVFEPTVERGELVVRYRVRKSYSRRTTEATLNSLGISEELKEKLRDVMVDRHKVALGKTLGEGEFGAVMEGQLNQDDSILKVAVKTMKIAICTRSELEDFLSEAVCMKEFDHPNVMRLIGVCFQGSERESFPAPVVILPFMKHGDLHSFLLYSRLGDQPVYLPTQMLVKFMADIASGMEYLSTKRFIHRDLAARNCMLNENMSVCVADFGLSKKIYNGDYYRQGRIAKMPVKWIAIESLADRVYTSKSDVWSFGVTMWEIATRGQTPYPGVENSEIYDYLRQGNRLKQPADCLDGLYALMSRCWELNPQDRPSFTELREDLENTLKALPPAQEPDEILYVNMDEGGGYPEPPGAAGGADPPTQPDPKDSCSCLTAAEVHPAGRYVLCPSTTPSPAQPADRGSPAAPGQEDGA
Briefly: flow cytometry on 786-O cells (second experiment, FIG. 10); 786-O cells; FIG. 10. Here is the method:
(§1) Cells in a logarithmic growth phase were collected; the cell density was regulated to 5×10⁶ cells/mL; and pre-cooling was performed on ice. The antibodies 6G12M11, 6G12M21, 6G12M31, and 6G12M41 were diluted to 20 μg/ml with pre-cooled normal saline containing 2% FBS. 100 μl of cells were taken, and an equal volume of each of the foregoing diluted antibodies was added to the cells to react for 30 minutes at 4° C. in the dark. After the completion of reaction, the cells were washed twice with pre-cooled physiological saline containing 2% FBS (6000 rpm, 45 s). The secondary antibody PE Mouse Anti-Human IgG (BD Pharmingen) was diluted at 1:5 with pre-cooled physiological saline containing 2% FBS, and 100 μL of the secondary antibody was taken for resuspending the cells, with a reaction conducted for 30 minutes at 4° C. in the dark. After the reaction, the cells were washed twice with pre-cooled physiological saline containing 2% FBS (6000 rpm, 45 s). The cells were resuspended by using 400 μl of 1% paraformaldehyde. The binding of antibodies to cell surface antigens was analyzed by means of a flow cytometer (BD Calibur).
(In general: A flow cytometer gives signals particle by particle.)

For assay [2], the target named is T1, AXL on the surfaces of human tumour …. Briefly: flow cytometry on MDA-MB-231 cells (second experiment, FIG. 9); MDA-MB-231 cells; FIG. 9. As for the experimental part: as §1
Assay [3] shares this target. The experiment in a line: flow cytometry on 786-O cells. Here is the method: as §1
Assay [4] shares this target. The experiment in a line: flow cytometry on MDA-MB-231 cells. Here is the method: as §1
For assay [5] the target is unchanged. The experiment in a line: flow cytometry on A549 cells. Here is the method:
as §1

Assay [6] concerns the target T2, TYRO3-Fc (ACRO Biosystems) (UniProt Q06418 41-428, limits assumed).
T2 construct: Bought reagent; also called TRYO3; not shown: Fc part
T2 sequence (looked up): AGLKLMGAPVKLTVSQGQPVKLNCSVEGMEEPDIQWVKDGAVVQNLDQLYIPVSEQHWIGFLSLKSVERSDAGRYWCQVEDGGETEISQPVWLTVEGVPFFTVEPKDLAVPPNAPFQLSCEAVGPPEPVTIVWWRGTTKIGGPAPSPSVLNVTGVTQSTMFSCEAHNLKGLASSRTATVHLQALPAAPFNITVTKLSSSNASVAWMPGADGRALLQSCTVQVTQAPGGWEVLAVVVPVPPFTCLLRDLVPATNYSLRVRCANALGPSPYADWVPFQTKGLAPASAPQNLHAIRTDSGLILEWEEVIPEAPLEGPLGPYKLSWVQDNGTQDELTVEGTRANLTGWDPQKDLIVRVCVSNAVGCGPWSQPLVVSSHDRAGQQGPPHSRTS
Briefly: ELISA, TYRO3-Fc coated at 1 µg/ml, anti-human IgG Fab-HRP, OD450. Here is the method:
TYRO3-Fc (ACRO Biosystems), MER-His (ACRO Biosystems), and AXL-His (Sino Biological Inc.) each were coated at 1 μg/ml on an ELISA strip, which was held at 4° C. overnight. After the ELISA strips were washed with PBST, 10% fetal bovine serum was added to the ELISA strip, which was blocked for 1 hour at 37° C. Antibodies […], 6G12M21, 6G12M31 and 6G12M41 were added to react at 37° C. for 1 hour. After the ELISA strips were washed with PBST, horseradish peroxidase-labeled goat anti-human IgG Fab secondary antibodies (Goat Anti-Human IgG (Fab′)₂ (HRP), Abcam) were added to react for 30 minutes at 37° C. The ELISA strips were washed 5 times with PBST, and patted and dried on absorbent paper to remove residual droplets as much as possible. 100 μl of TMB (eBioscience, #85-00-420) was added to each well, and the ELISA strips were held for 1.5 min at room temperature (20±5° C.) in the dark. 100 μl of 2N H₂SO₄ stop solution was added to each well to terminate substrate reaction. The OD value was read at 450 nm by a microplate reader to analyze the binding ability of antibodies to the proteins.
Background: In an ELISA, binding on a coated surface is turned into a signal by an enzyme label.

Assay [7] addresses T1, AXL on the surfaces of human tumour …. The experiment in a line: flow cytometry on 786-O cells (second experiment, FIG. 10); 786-O cells; second experiment, FIG. 10. Here is the method: as §1

B1: antibody 6G12M31 (antibody, V domains shown)
VH: QVQLVQSGPGLVKPSQSLSLTCSVTGFSISSGYYWNWIRQFPGQKLEWMGYRSYDGSNNYDPSLKNRISITRDTSKNQFFLKLNSVTSEDTATYYCARGWLLHYTMDYWGQGTTVTVSS
VL: DIVMTQSPSSVSVTLGQSASISCRSSRSLLHSNGFTYLYWYLQKPGQSPQLLIYQMSNLASGVPDRFSGSGSGTDFTLKISRVEAEDVGVYYCGQNLELPLTFGGGTKLEIK
What is called EC50 is the concentration giving half of the maximal effect. A lower EC50 goes with a more potent agent. As to B1, the half-maximal effective concentration (EC50) in assay [1] was determined as 0.53 µg/mL; in assay [2], 0.6 µg/mL.

B2: antibody 6G12M11 (antibody, human IgG1, kappa, V domains shown)
VH: QVQLVQSGPGLVKPSQSLSLTCAVTGFSISSGYYWNWIRQFPGQKLEWMGYRSYDGSNNYNPSLKNRISITRDTSKNQFFLKLNSVTSEDTATYYCARGWLLHYTMDYWGQGTTVTVSS
VL: EIVMTQSPSSVSVTLGQSASISCRSSRSLLHSNGFTYLYWYLQKPGQSPQLLIYQMSNLASGVPDRFSGSGSGTDFTLKISRVEAEDVGVYYCGQNLELPLTFGGGTKLEIKR
In the case of B2, the 50% effective concentration (EC50) in assay [3] is 0.43 µg/mL; in assay [4], 0.59 µg/mL; in assay [5], 0.46 µg/mL. Moreover, in assay [6], the binding result is recorded as “no binding (tested: about 1 µg/mL)”.

B3: antibody 6G12M21 (antibody, human IgG1, kappa, V domains shown)
VH: QVQLVQSGPGLVKPSQSLSLTCSVTGFSISSGYYWNWIRQFPGQKLEWMGYRSYDGSNNYNPSLKNRISITRDTSKNQFFLKLNSVTSEDTATYYCARGWLLHYTMDYWGQGTTVTVSS
VL: DIVMTQSPSSVSVTLGQSASISCRSSRSLLHSNGFTYLYWYLQKPGQSPQLLIYQMSNLASGVPDRFSGSGSGTDFTLKISRVEAEDVGVYYCGQNLELPLTFGGGTKLEIKR
On to B3, for which the EC50 in assay [3] was found to be 0.31 µg/mL; in assay [4] it was 0.39 µg/mL; in assay [5] it was 0.78 µg/mL; in assay [7], 0.4 µg/mL.

B4: antibody 6G12M41 (antibody, V domains shown)
VH: QVQLVQSGPGLVKPSQSLSLTCSVTGFSISSGYYWNWIRQFPGQKLEWMGYRSYDGSNNYGPSLKNRISITRDTSKNQFFLKLNSVTSEDTATYYCARGWLLHYTMDYWGQGTTVTVSS
VL: DIVMTQSPSSVSVTLGQSASISCRSSRSLLHSNGFTYLYWYLQKPGQSPQLLIYQMSNLASGVPDRFSGSGSGTDFTLKISRVEAEDVGVYYCGQNLELPLTFGGGTKLEIK
On to B4, for which the 50% effective concentration (EC50) in assay [1] worked out at 0.47 µg/mL; in assay [2] it was 0.54 µg/mL.
